According to article PMC1326249:

Biological target: U1A N-terminal RRM wild type (human, UniProt P09012 2-98)
Test: SPR

Sequence of U1A N-terminal RRM wild type (P09012 2-98): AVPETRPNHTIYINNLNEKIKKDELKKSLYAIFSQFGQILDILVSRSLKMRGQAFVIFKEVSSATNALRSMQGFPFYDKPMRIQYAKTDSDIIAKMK

B1: U1hpII (structured_RNA)
RNA: AGCUUAUCCAUUGCACUCCGGAUAAGCU
Kd: 0.07 nM
